Like-named read-outs stand apart in the source and are kept apart here.
Experiments:
[1] = molecular target: recombinant human IL-33 (R&D Systems 3625-IL) (human) (UniProt O95760); test: cell-based or functional assay
[2] = molecular target: T1, biotinylated human IL-33 wild-type (WT), reduced with 3 mM DTT (human) (UniProt O95760); test: KinExA solution affinity, fixed antigen format, global fit
T1 sequence (biotinylated (site not stated), looked up): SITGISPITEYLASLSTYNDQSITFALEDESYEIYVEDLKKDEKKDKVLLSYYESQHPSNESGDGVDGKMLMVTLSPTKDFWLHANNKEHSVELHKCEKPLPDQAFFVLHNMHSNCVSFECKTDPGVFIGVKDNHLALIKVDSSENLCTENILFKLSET

[3] = molecular target: recombinant human IL-33 (R&D Systems 3625-IL), reduced with DTT (human) (UniProt O95760); test: cell-based or functional assay
[4] = molecular target: recombinant human IL-33 (R&D Systems 3625-IL), reduced with DTT (human) (UniProt O95760); test: cell-based or functional assay; remark: listed apart in the source
[5] = molecular target: recombinant human IL-13 R110Q (human), P35225; test: cell-based or functional assay
recombinant human IL-13 R110Q (human), P35225, sequence (P35225 35-146, stated change not applied): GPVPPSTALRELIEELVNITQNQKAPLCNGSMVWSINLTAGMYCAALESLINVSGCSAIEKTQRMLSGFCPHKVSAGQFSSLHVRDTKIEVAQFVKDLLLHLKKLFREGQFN

B1: IL33-310 (antibody, from a related filing, V domains shown)
VH: EVQLVESGGGLVQPGGSLRLSCAASGFTFSSFSMSWVRQAPGKGLEWVATISGGKTFTDYVDSVKGRFTISRDDSKNTLYLQMNSLRAEDTAVYYCTRANYGNWFFEVWGQGTLVTVSS
VL: EIVLTQSPATLSLSPGERATLSCRASESVAKYGLSLLNWFQQKPGQPPRLLIFAASNRGSGIPARFSGSGSGTDFTLTISSLEPEDFAVYYCQQSKEVPFTFGQGTKVEIKR
Q: How did the IC50 (pM) HEK-Blue IL-33 SEAP (mean) [1] turn out when B1 was run?
A: 56.4 pM

B2: IL33-0352 (Clinical Benchmark) (antibody, INN chains, looked up, V domains shown)
VH: EVQLVESGGNLEQPGGSLRLSCTASGFTFSRSAMNWVRRAPGKGLEWVSGISGSGGRTYYADSVKGRFTISRDNSKNTLYLQMNSLSAEDTAAYYCAKDSYTTSWYGGMDVWGHGTTVTVSS
VL: DIQMTQSPSSVSASVGDRVTITCRASQGIFSWLAWYQQKPGKAPKLLIYAASSLQSGVPSRFSGSGSGTDFTLTISSLQPEDFAIYYCQQANSVPITFGQGTRLEIK
modifications: IgG1 effector-null
Q: Which Kd [2] does the source give for B2 here?
A: 0.00066 nM

Q: And the IC50 [nM] versus reduced human IL-33 (R&D), IC50 (AVE) [3]?
A: 0.011 nM

Q: And the IC50 [nM] versus reduced human IL-33 (R&D), IC50 (AVE) [4]?
A: 0.018 nM

B3: IL33-265 (antibody, from a related filing, V domains shown)
VH: EVQLVESGGNLEQPGGSLRLSCTASGFTFSRSAMNWVRRAPGKGLEWVSGISGSGGRTYYADSVKGRFTISRDNSKNTLYLQMNSLSAEDTAAYYCAKDSYTTSWYGGMDVWGHGTTVTVSS
VL: DIQMTQSPSSVSASVGDRVTITCRASQGIFSWLAWYQQKPGKAPKLLIYAASSLQSGVPSRFSGSGSGTDFTLTISSLQPEDFAIYYCQQANSVPITFGQGTRLEIKR
Q: For B3, which IC50 (pM) HEK-Blue IL-33 SEAP (mean) [1] is on record?
A: 15.9 pM

B4: IL13-0001 (antibody, human IgG1, kappa)
heavy: EVQLVESGGGLVQPGGSLRLSCAASGFTFSSYAMSWVRQAPGKGLEWVASISSGDTTYYPDSVKGRFTISRDNAKNSLYLQMNSLRAEDTAVYYCARNEGYYFGLTLWGQGTLVTVSSASTKGPSVFPLAPSSKSTSGGTAALGCLVKDYFPEPVTVSWNSGALTSGVHTFPAVLQSSGLYSLSSVVTVPSSSLGTQTYICNVNHKPSNTKVDKKVEPKSCDKTHTCPPCPAPEAAGAPSVFLFPPKPKDTLMISRTPEVTCVVVDVSHEDPEVKFNWYVDGVEVHNAKTKPREEQYNSTYRVVSVLTVLHQDWLNGKEYKCKVSNKALPAPIEKTISKAKGQPREPQVYTLPPSREEMTKNQVSLTCLVKGFYPSDIAVEWESNGQPENNYKTTPPVLDSDGSFFLYSKLTVDKSRWQQGNVFSCSVMHEALHNHYTQKSLSLSPGK
light: DIQMTQSPSSLSASVGDRVTITCKASESVDHFGWSLVHWYQQKPGKAPKLLIYRASNLESGVPSRFSGSGSGTDFTLTISSLQPEDFATYYCQQSNEDPWTFGGGTKVEIKRTVAAPSVFIFPPSDEQLKSGTASVVCLLNNFYPREAKVQWKVDNALQSGNSQESVTEQDSKDSTYSLSSTLTLSKADYEKHKVYACEVTHQGLSSPVTKSFNRGEC
Q: Which results are given for B4?
A: IC50 (median), Monocyte CD23 expression [5]: 0.0101 nM; IC50 (median), STAT6 phosphorylation in HT-29 cells [5]: 0.104 nM
